Reference: the supplement of paper PMC9233669
Variants at the floor of the assay were thinned out.

How the values were obtained:
biotinyl-Phe-oxazolone = experiment: self-aminoacylation, catalytic enhancement (BFO) (fold over background); higher = more active; k-Seq, kA / k0A0; sequences stand for … in GGGAAUGGAUCCACAUCUACGAAUUC…UUCACUGCAGACUUGACGAAGCUG
Method in brief: (§1)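 Mutagenized RNA pools with a 21-nt variable region (0.43 μM) were reacted with each biotinyl-aminoacyl-oxazolone at 2–1250 μM for 90 minutes at room temperature, in 50 μL HEPES/NaCl/KCl/MgCl2/CaCl2 buffer containing 5% acetonitrile at pH 6.9–7.0. RNA captured on streptavidin was quantified by triplicate qPCR and by Illumina sequencing. The fraction reacted for each sequence was fit to a pseudo-first-order model with bootstrapping, and catalytic enhancement is the median kA divided by the uncatalyzed rate, taken as the low-activity peak of a bimodal Gaussian fit.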

biotinyl-Ile-oxazolone = experiment: self-aminoacylation, catalytic enhancement (BIO) (fold over background); higher = more active; k-Seq, kA / k0A0; sequences stand for … in GGGAAUGGAUCCACAUCUACGAAUUC…UUCACUGCAGACUUGACGAAGCUG
Method in brief: as §1

biotinyl-Met-oxazolone = experiment: self-aminoacylation, catalytic enhancement (BMO) (fold over background); higher = more active; k-Seq, kA / k0A0; sequences stand for … in GGGAAUGGAUCCACAUCUACGAAUUC…UUCACUGCAGACUUGACGAAGCUG
Method in brief: as §1

biotinyl-Val-oxazolone = experiment: self-aminoacylation, catalytic enhancement (BVO) (fold over background); higher = more active; k-Seq, kA / k0A0; sequences stand for … in GGGAAUGGAUCCACAUCUACGAAUUC…UUCACUGCAGACUUGACGAAGCUG
Method in brief: as §1

biotinyl-Leu-oxazolone = experiment: self-aminoacylation, catalytic enhancement (BLO) (fold over background); higher = more active; k-Seq, kA / k0A0; sequences stand for … in GGGAAUGGAUCCACAUCUACGAAUUC…UUCACUGCAGACUUGACGAAGCUG
Method in brief: as §1

biotinyl-Trp-oxazolone = experiment: self-aminoacylation, catalytic enhancement (BWO) (fold over background); higher = more active; k-Seq, kA / k0A0; sequences stand for … in GGGAAUGGAUCCACAUCUACGAAUUC…UUCACUGCAGACUUGACGAAGCUG
Method in brief: as §1

Sequence	self-aminoacylation (biotinyl-Phe-oxazolone)	self-aminoacylation (biotinyl-Ile-oxazolone)	self-aminoacylation (biotinyl-Met-oxazolone)	self-aminoacylation (biotinyl-Val-oxazolone)	self-aminoacylation (biotinyl-Leu-oxazolone)	self-aminoacylation (biotinyl-Trp-oxazolone)
AAGUUUGCUAAUAGCCGCAAA [Fam3.1 aminoacylation ribozyme variant]	1.38	1.92	1.86	1.58	1.38	1.3
CUAAUUCAAACAAUCGGUCAG [Fam1A.1 aminoacylation ribozyme variant]	1.46	0.602	0.583	0.546	0.566	0.765
AUUACCUUGGUCAUCGCGUGA [Fam2.1 aminoacylation ribozyme variant]	130	7.37	17.3	9.23	19.2	19.5
GUUACCCUGGUCACCGAGUGA [Fam2.1 aminoacylation ribozyme variant]	79.2	5.31	11.2	6.95	13.1	14.8
AUUCACUUAUGUCAUCGGGUG [Fam2.2 aminoacylation ribozyme variant]	42.6	3.42	5.5	3.08	7.31	5.18
AUAACCCUGGUCAUUGAGUGA [Fam2.1 aminoacylation ribozyme variant]	36.7	3.89	8.67	3.82	8.57	10.2
AAGUUUCCUAUUAGUCGCAAG [Fam3.1 aminoacylation ribozyme variant]	1.87	1.29	1.24	1.32	1.22	1.35
AUUGACCCAGGUCAUCGGGUG [Fam2.2 aminoacylation ribozyme variant]	34.9	3.6	4.74	3.31	6.54	5.64
AUUACCCUGGUCACCAAGUGA [Fam2.1 aminoacylation ribozyme variant]	34.3	3.47	6.45	3.32	6.54	7.7
CAGUUUGCUAGUAGUCGCAAG [Fam3.1 aminoacylation ribozyme variant]	1.19	0.938	0.827	1.04	1.25	1.37
GUACUUCAAAGAAUCGGUCUG [Fam1A.1 aminoacylation ribozyme variant]	3.28	1.26	1.07	1.24	1.46	4.9
CCACACUUCCAGCAAUCGAUC [Fam1B.1 aminoacylation ribozyme variant]	0.92	0.83	0.673	0.959	0.579	0.611
AUUACCCUGGUCAUCUAGUAA [Fam2.1 aminoacylation ribozyme variant]	1.32	1.1	1.06	1.08	1.15	0.903
AAGUUUGGUAAUAGUCGCAAG [Fam3.1 aminoacylation ribozyme variant]	2.13	1.32	1.22	1.19	1.25	1.38
AUUACCCUGGUUAUCGAGUUA [Fam2.1 aminoacylation ribozyme variant]	0.868	0.945	1.15	0.885	1.01	0.319
CUACUUCAAACAUUGGGUCUG [Fam1A.1 aminoacylation ribozyme variant]	0.555	0.914	0.944	0.977	0.868	0.716
ACUCACCUAUGUCAUCGGGUG [Fam2.2 aminoacylation ribozyme variant]	33.4	4.11	5.4	4.18	6.52	6.08
CUACUUCAAACAAUCCGUCUA [Fam1A.1 aminoacylation ribozyme variant]	1.07	0.801	0.611	0.88	0.651	0.596
AAGUUUGCUGAUAGUCCCAAG [Fam3.1 aminoacylation ribozyme variant]	0.972	1.17	0.626	0.847	0.786	1.08
AUUACCAUGGUCAUCGCGUGA [Fam2.1 aminoacylation ribozyme variant]	189	10.3	24.6	12.1	25.2	26.7
CCAGUCUUCAAGCAAUCGGUC [Fam1B.1 aminoacylation ribozyme variant]	68.5	1.67	1.79	1.63	2.8	38.6
CUACUUCAAACAAUCGGUCGA [Fam1A.1 aminoacylation ribozyme variant]	14.9	0.884	0.807	0.974	0.992	6.82
AUACUUCAAUCAAUCGGUCUG [Fam1A.1 aminoacylation ribozyme variant]	8.53	1.11	1.19	1.06	1.33	6.62
AUUACCUUGGUCAGCGAGUGA [Fam2.1 aminoacylation ribozyme variant]	21.5	3.26	5.05	3.08	5.38	6.84
CCACACUUCAUUCAAUCGGUC [Fam1B.1 aminoacylation ribozyme variant]	0.605	0.806	0.604	0.744	0.701	0.495
CUAAUUCAAACAAUCGGUCUA [Fam1A.1 aminoacylation ribozyme variant]	1.65	0.612	0.549	0.593	0.497	0.635

Sequence	self-aminoacylation (biotinyl-Phe-oxazolone)	self-aminoacylation (biotinyl-Ile-oxazolone)	self-aminoacylation (biotinyl-Met-oxazolone)	self-aminoacylation (biotinyl-Val-oxazolone)	self-aminoacylation (biotinyl-Leu-oxazolone)	self-aminoacylation (biotinyl-Trp-oxazolone)
AUUAGCCUGGUCAUCGGGUGA [Fam2.1 aminoacylation ribozyme variant]	94.3	6.74	10.1	7.06	13.3	13.4
AUUACCCUUGUCAUCGAGUAA [Fam2.1 aminoacylation ribozyme variant]	0.935	1.19	1.36	1.13	1.22	1.53
AAGUUUGCUCAUAGUAGCAAG [Fam3.1 aminoacylation ribozyme variant]	1.58	0.928	0.727	1.09	0.817	0.786
UUUACCCAGGUCAUCGAGUGA [Fam2.1 aminoacylation ribozyme variant]	21.9	3.49	5.36	3.55	5.06	6
CUUCUUCAAACAAUCUGUCUG [Fam1A.1 aminoacylation ribozyme variant]	2.27	0.768	0.587	0.698	0.748	1.15
AUGACCCUGGUUAUCGAGUGA [Fam2.1 aminoacylation ribozyme variant]	15.5	3.39	6.78	3.36	7.14	8.52
CCACAGUUCAAGCAAUAGGUC [Fam1B.1 aminoacylation ribozyme variant]	1.14	0.794	0.783	0.862	0.731	0.858
CCACACUUUAAGCAAUGGGUC [Fam1B.1 aminoacylation ribozyme variant]	0.774	0.696	0.686	0.613	0.618	0.612
CCACACUUCAAGCAGUCGGUC [Fam1B.1 aminoacylation ribozyme variant]	1.1	0.849	0.724	0.878	0.783	0.712
CCACACUUCAAGCAAGUGGUC [Fam1B.1 aminoacylation ribozyme variant]	0.777	0.441	0.43	0.611	0.449	0.536
CGACACUUCAAGCAUUCGGUC [Fam1B.1 aminoacylation ribozyme variant]	3.31	1.8	1.64	1.99	1.55	1.51
CCACACUUCAAGCAAGCGGAC [Fam1B.1 aminoacylation ribozyme variant]	0.42	0.959	1.16	1.15	0.794	0.604
AUUACCCUGGUCAACGAGUAA [Fam2.1 aminoacylation ribozyme variant]	1.01	1.29	1.19	1.44	1.53	0.972
AAGUUUGCUGAUAGUAGCAAG [Fam3.1 aminoacylation ribozyme variant]	1.41	0.892	1.07	1.24	0.88	1.05
CUGCUUCAAACAAGCGGUCUG [Fam1A.1 aminoacylation ribozyme variant]	0.392	0.718	0.597	0.731	0.777	0.576
CUGCUUCCAACAAUCGGUCUG [Fam1A.1 aminoacylation ribozyme variant]	1.03	0.634	0.737	0.691	0.73	1.02
AACGUUGCUAAUAGUCGCAAG [Fam3.1 aminoacylation ribozyme variant]	2.3	1.64	1.81	1.68	1.66	1.97
AUGCAGCUAGGUCAUCGGGUG [Fam2.2 aminoacylation ribozyme variant]	24.9	2.95	3.73	3.61	4.37	3.92
AUUACCCUGGACAUCGAGUGU [Fam2.1 aminoacylation ribozyme variant]	5.95	1.51	3.35	2.66	3.35	4.38
AUCCACCUAGGUGAUCGGGUG [Fam2.2 aminoacylation ribozyme variant]	35.5	4.38	6.1	4.45	5.68	5.98
GUUACCCUGGUCAUCGAGAGA [Fam2.1 aminoacylation ribozyme variant]	2.82	1.32	2.96	1.74	1.9	3.07
AAGUUUCCUAAUAUUCGCAAG [Fam3.1 aminoacylation ribozyme variant]	0.549	0.935	0.987	0.841	0.935	0.649
AUCACCCUGGUCAUCGAAUGA [Fam2.1 aminoacylation ribozyme variant]	0.93	1.26	1.13	1.41	1.29	0.777
AUGUUUGCUAACAGUCGCAAG [Fam3.1 aminoacylation ribozyme variant]	5.92	1.59	1.61	1.43	1.49	3.34
CUACUCCAAACAAUCGGACUG [Fam1A.1 aminoacylation ribozyme variant]	1.13	0.74	0.762	0.711	0.6	0.909
